The test addresses T cell receptor of CD8+ T cells from OT1 transgenic mice (ova-specific T cells). Briefly: cell-based or functional assay.

“H-2Kb SIINFEKL-DBCO-Thiolinker monomer clicked onto azido-labeled murine erythroid cells (from UniProt P01901 22-305) (peptide-MHC)” gave an expansion of OT1 cells in vivo after a second aAPC dose (FIG. 6) greater than 200 fold.

The values are drawn from patent US20190290686A1.
